# Assay results as given in the DeepSol protein solubility set.
# Experiment: soluble on expression in E. coli; label from the status in PepcDB or PDB records
row,Sequence,soluble on expression in E. coli
1,PVNGALDQYSARAANILAGNLDNHPLLEITALDFRMKANSDVLIAVTGAPLTLTVGGRPCSQWEPVSVRAGESVSIRGIHRGLRAYLAIHGSIEAGTLLGSAAPDTVVGFGLQLQEGTTLLSRRSVSPVRQPYFDLPLFRLGLERPSMGSDLSVDVTDGPDVAEFGESGELLFTSEYVVSGRSNHIGLRLGGELPERTSSDEVLSRGVPVGAVEVPSREELLVLHRGRGVTAGYPVLAVVTSTGLDVLAQARPGDKVRFRKTT,not soluble
2,PYPIDLVSVVIPVYNEEASLPELLRRTEAACLELGRAFEIVLVDDGSRDRSAELLQAAAERDGSAVVAVILNRNYGQHAAILAGFEQSRGDLVITLDADLQNPPEEIPRLVERAAQGYDVVGSIRAERQDSAWRRWPSRLVNLAVQRSTGVAMHDYGCMLRAYRRSIVEAMLACRERSTFIPILANGFARHTCEIRVAHAERAHGESKYSAMRLLNLMFDLVTCMTTTPLR,not soluble
3,QALQTLVEKISIVFFQKPFLHQATFNRRLKTTGGRYHLASHHLDFNPTVFLKYGQEELEKVIKHELCHYHLHLAGKGYQHKDKDFKELLAKTGGARYAPPLVERKKAVFHQYQCQSCGEVILRKRRIDTTRYVCGKCHGRLSWQ,not soluble
4,QAVVTQESALTTSPGETVTLTCRSSTGAVTTSNYANWVQEKPDHLFTGLIGGTNKRAPGVPARFSGSLIGDKAALTITGAQTEDEAIYFCALWDSNHLVFGGGTKLTVLGQPKSSPSVTLFPPSSEELETNKATLVCTITDFYPGVVTVDWKVDGTPVTQGMETTQPSKQSNNKYMASSYLTLTARAWERHSSYSCQVTHEGHTVEKSLSPADC,soluble
5,QDLTLSFNHIKSAVIYSAYPLTDKQVGELVQMLNKRFDSELKISVEIEPELIGGIKVEVGDQVLDLSVQGKLSALYTTMTN,not soluble
6,QEQAVILRFGKYYETVGPGLNFYFPPIDKRFQENVTRERAYSKQGQMLTEDENIVEVPLTVQYKISNLQDFVLNVDQPEVSLQQATESALRHVAGSTTMDRILTEGREQMATEVRERLQRFLDTYRTGITVTQVNIQSAQAPREVQEAFDDVIRAREDEQREKNQAEAYANGVVPEARGQAQRIIEEANGYRDEVISRAQGEADRFSKLLVEYRKAPEVTRERLYLDTMQEVFSQTSKVLVTGQQGQNNLLYLPLDKMIDGRNAAPATGAGASAGGGSASASDLGSRIVNDLRQQDARTRESR,not soluble
7,QFKVKSAFKKYSQVATQNGVTGAQAALRILQRGGLENVNVEMTSGMLSDHYDPRQKVLRLSEEVYSLPSIASVGVAAHEAGHALQDKVNYSPLAIRSAM,not soluble
8,QGGPVEILPYLFLGSCSHSSDLQGLQACGITAVLNVSASCPNHFEGLFRYKSIPVEDNQMVEISAWFQEAIGFIDWVKNSGGRVLVHSQAGISRSATICLAYLMQSRRVRLDEAFDFVKQRRGVISPNFSFMGQLLQFETQVLCH,soluble
9,QKIEKQYDADLEQILIQWITTQCRKDVGRPQPGRENFQNWLKDGTVLCELINALYPEGQAPVKKIQASTMAFKQMEQISQFLQAAERYGINTTDIFQTVDLWEGKNMACVQRTLMNLGGLAVARDDGLFSGDPNWFPKKSKE,soluble
10,QKTGIYDSLRLKLEIVKFYSPNERDAAFHSGNVEGTVIDYTGAAMQQAGGIDLQLVMRLDGYFRLVMSKDYTGESLETLKGKNLGISRNTVIEYTTDRIINTAGLDESEITKTEVNKIPLRLEMLRSGQIDAAVLPDPFITIAMADG,not soluble
11,QLAAIDAFDRLTALMTSHFDIDVAFVGLMDEHEERFVACEGANWRTLAREDTICTHTILSDETMVVEDTHEDPRFAEVDALKRLNIRSYAGGRITDREGNAIGAVCCTDGEPRRYTQTERDDLQRFADEVEEQLLLRRRLQGDR,not soluble
12,QLQEKLYVPVKEYPDFNFVGRILGPRGLTAKQLEAETGCKIMVRGKGSMRDKKKEEQNRGKPNWEHLNEDLHVLITVEDAQNRAELKLKRAVEEVKKLLVPAAEGEDSLKKMKLMELAILNGTYRDANLKSPALHHHHHH,soluble
13,QNLPQGDLMQHGMMAVKAATLSDAEVRQVADQACAESDQQNRIAPANSKYGQRLDKIAKALGDQIDGVPVNYKVYLTEEVNAWAMANGCIRVYSGLMELMSDNEIEGVLGHEMGHVALGHTRKAAQTAYAAAAVRGAAGASKSGALAALSGSQLGELTESLVNAQFSQSQESDADDFSYELLKKRGVNTQGLVTAFEKLAKLGGGDSSMFDSHPGSQARADHIRQRIAADR,not soluble
14,QQCGQTAPLINERLSYMKDVAGYKAENHLPIEDRIQEEKVINSAMAQAESLGLNGESIKPLMVAQINAAKAIQYRYRADWLSQPEPGWQPKPLDDVRANIGELSTKILEQIAEELKTCKPAEMGDKAHFINTIRQHNLTSADVEAIFSTFNQVKLK,soluble
15,QRKKAEEALRLSNIYNRSLIESSLDPLVTIGRDGKITDVNCATEQVTGYPRNDLIKTDFSDYFTEPENARAGYKQVFTDGEVRDYPLEIQHKDGHITPVLYNASVYRDENGEVIGVFAAARDIT,not soluble
16,QRQSPIYHAQATVLIKSAEKSGATSGLQQFQELGLMIGNSEVENEILMLKSKRLTAIVVDKLDLDVSIYKQGFWRNESLYGNSPVSIQITDRDSTENYSFRIQINDAHSFQLTHFEQKERNGIGDIKIDGSFGRPIATPVGELKLNTTLFFADSWKGEVLYVTKENTRKVVERYNQDLQVSLADKKATIVNLSLKNEDLDRAKNFIDALIASYNDDVMNDKKSVAVSTAAFIDERLAMIGGELGTVDTEIETFKKRNNITDISTDVGTYLKSSADLQKDQLIVERNLSLAKYIQSFLRQTSTDNELMPANLGLTERGIDNSITLYNELKLKYDRLKQSSSENSPAVQEVGMQLVAMRKSINAAVDNYIKTLNLQLREVNKEMSRTKEQISAVPTQEKIMSTILRQQKIKEELYLYLLNKREENALRLAITESNAKTVDSADGSSEPISPRKP,not soluble
17,QSALTQPASVSGSPGQSITISCTGTSSDVGGYNYVSWYQQHPGKAPKLMIYGVTNRPSGVSNRFSGSKSGNTASLTISGLQAGDEADYYCSSYTSTRTPYVFGTGTKVEIKRTVAAPSVFIFPPSDEQLKSGTASVVCLLNNFYPREAKVQWKVDNALQSGNSQESVTEQDSKDSTYSLSSTLTLSKADYEKHKVYACEVTHQGLSSPVTKSFNRGEC,soluble
18,QSGHTKKINDKEMLDYKGRIPVGTLTLKFDQPVKDPILDFSGLGGYNIFSAHHEEASHEGIRNWEVRNGKIVVTGESASVVGAQINDQIRGSFNHTDLELETPGVKLVELAKNSNLKVDDRSISTVAANNDYVCNTPNDYQTLPEELENGPSYEQNDAFLSPVMKPAGCGSVLAQGEFSELKFTLFSSVEPMSSFAHDTHKTGLLYFAGGVNGGNANPVTPIPMLEGYSKPQEVSDTSNGDLFRMSIRLPEEPVKGSVSVGDFVWIDKDADGRQDDNEPGLAGVKLWLYGPDGGPVTDVHGKVVKSVTTGEDGKYSFKDLPVLTGSDSYTVKVVDVPAGYKPTLSGTGKVPAFKDSSTDLAKSTPGALSENGAQDLTLDFGFVKESATPSDPTVPGFK,not soluble
19,QTLDIQRGATLFNRACIACHDTGGNIIQPGATLFTKDLERNGVDTEEEIYRQTYFGKGRMPGFGEKCTPRGQCTFGPRLQDEEIKLLAEFVKFQADQGWPTVSTD,soluble
20,QVQLLESGAVLARPGTSVKISCKASGFNIKDYYMHWVKQRPGQGLEWIGGNDPANGHSMYDPKFQGRVTITADTSTSTVFMELSSLRSEDTAVYYCARDSGYAMDYWGQGTLVTVSSASTKGPSVFPLAPCSRSTSESTAALGCLVKDYFPEPVTVSWNSGALTSGVHTFPAVLQSSGLYSLSSVVTVPSSSLGTKTYTCNVDHKPSNTKVDKRVES,soluble
21,QVQLQQPGTELVRPGASVILSCKASGYTFTSYWINWVKQRPGQGLEWVGNIFPSDSYTNYNQKFKDKATLTVDKSSSTAYMQVNSPTSEDSAVYYCTRGARDTWFAYWGQGTLVTVSVAKTTPPSVFPLAPGSAAQTNSMVTLGCLVKGYFPEPVTVTWNSGSLSSGVHTFPAVLQSDLYTLSSSVTVPSSTWPSETVTCNVAHPASSTKVDKKIVPRDC,soluble
22,RARADKQHVLDMLFSAFEKHQYYNLKDLVDITKQPVVYLKEILKEIGVQNVKGIHKNTWELKPEYRHYQ,soluble
23,REEDPHEGKIWFHGKISKQEAYNLLMTVGQVCSFLVRPSDNTPGDYSLYFRTNENIQRFKICPTPNNQFMMGGRYYNSIGDIIDHYRKEQIVEGYYLKEPVPMQDQ,soluble
24,REGKASTVNPGNGNVPDAEDLQALFDVIYEVMPEPTVNVDGPLQAHVTNLDSSSFLGRIGLIRVHSGSLKKGQQVAWIHYDEEGNQHTKTAKIAELLRTVGVTRVPADEVVAGDIAAISGIDSIMIGDTLADLEHPVALPRITVDEPAISMTIGVNTSPLAGRGGGDKLTARVVKARLEQELIGNVSLRVLPTERPDAWEVQGRGEMALSVLVETMRREGFELTVGKPQVVTQTVDGKLFEPYEHMVIDIPSEYQGNVTQLMAARKGQMLSMDNISDEWVRMEYKVPARGLISFRTMFMTETRGTGIANSYSEGLDEWAGEIKGRATGSLVADRSGQITAYALQQLADRGNFFVEPGTEAYEGMVVGANNRDEDMDVNITREKKLTNMRSATADATVTLAKARSLSLDEAMEFCGQDECVEVTPDVLRVRKVILNATERGRARAREKARNK,not soluble
25,RFNVFDFRGATLIADYGHNPDAIQALVRAIDTMPARRRSVVISGAGDRRDEDLRQQTEILGGAFDDVILYQDQCQRGRADGEVVALLRQGLQQAPRTRHIDEIQGEFVAIDAALERLAPGDLCLILVDQ,not soluble
26,RFSEVLSTPEYDNAKSPVTLALGHDIGGKPVITDLAKMPHLLVAGTTGSGKSVGVNAMILSILFKSGPEDAKLIMIDPKMLELSIYEGIPHLLCPVVTDMKDAANALRWSVAEMERRYKLMAKMGVRNLSGFNQKVKEAQDAGEPLADPLYKRESIHDEAPLLTKLPTIVVVVDEFADMMMIVGKKVEELIARIAQKARAAGIHLILATQRPSV,not soluble
27,RKADEGKWQLVGGDIQNAIVQNICMMDDNKIACEVFGTPNGVDGRTRVCVSDASVFDFEWYEDEIYGGLIFDTFFYSPWDKLLYAKFGGIMLRSKESFITSFISPTVVQGVDVYTLAGKIRIESETPVSEVLLFDLAGRMVLRQTIDNKIYSDIDTNGLKRSGIYVVSVRLSSGQVFSHKVQV,not soluble
28,RKMFRALMPALEELTFDPSSAHPSLVVSSSGRRVECSEQKAPPAGEDPRQFDKAVAVVAHQQLSEGEHYWEVDVGDKPRWALGVIAAEAPRRGRLHAVPSQGLWLLGLREGKILEAHVEAKEPRALRSPERRPTRIGLYLSFGDGVLSFYDASDADALVPLFAFHERLPRPVYPFFDVCWHDKGKNAQPLLLV,soluble
